Data from patent publication US20180009892A1 (EUREKA THERAPEUTICS, published 2018).

B1: P601-51 (scFv, V domains shown)
VH: not shown
VL: QSALTQPASVSGSPGQSITISCTGTSSDFGDYDYVSWYQQHPGKAPKLMIYDVSDRPSGVSNRFSGSKSGNTASLTISGLQAEDEADYFCSSFTTSSTLVFGGGTKLTVLG
B2: Antibody 601-14 (antibody, V domains shown)
VH: QVQLVQSGAEVKKPGESLKISCKDSGYSFTNYWLGWVRQMPGKGLEWMGIIYPGDSDTRYSPSFRGQVTISADKSISTAYLQWSSLKASDTAMYYCARLNLATHTAFDIWGQGTTVTVSS
VL: QSVLTQPASVSGSPGQSITISCTGTSSDVGGYNYVSWYQQHPGKAPKLMIYDVSNRPSGVSNRFSGSKSGNTASLTISGLQAEDEADYYCSSYTSSSTLWVFGGGTKLTVLG
B3: P601-28 (scFv, V domains shown)
VH: EVQLVQSGGDLVQPGGSLRLSCAASGFTFSSYSMNWVRQAPGKGLEWVSSISSSSSYIYYADSVKGRFTISRDNAKNSLYLQMNSLRAEDTAVYYCARGLGGWTHDAFDIWGQGTTVTVSS
VL: QSALTQPASVSGSPGQSITISCTGTSSDVGGYNYVSWYQQHPGKAPKLMIFDVSNRPSGVSNRFSGSKSGNTASLTISGLQAEDEADYYCSSYTSSSTLFGGGTKLTVL
B4: P601-37 (scFv, V domains shown)
VH: EVQLVQSGAEVKKPGASVKVSCKASGYTFNNYGFSWVRQAPGQGLEWMGWISVYNGNTNYAQKLQGRVTMTTDTSTSTAYMELRSLRSDDTAVYYCARDYYSDSSGYWDDAFDIWGQGTMVTVSS
VL: AIRMTQSPSSLSASVGDRVTITCQASQDISNYLNWYQQKPGKAPKLLIYAASSLQSGVPSRFSGSGSGTDFTLTISSLQPEDFATYYCQQSYSTPFTFGPGTKVDIK
B5: P601-56 (scFv, V domains shown)
VH: QLQLQESGPGLVKPSETLSLTCTVSGGSISSSSYYWGWIRQPPGKGLEWIGSIYYSGSTYYNPSLKSRVTISVDTSKNQFSLKLGSVTAADTAVYYCARHDGTDAFDIWGQGTTVTVSS
VL: QSVLTQPASVSGSPGQSITISCTGTSSDFGDYDYVSWYQQHPGKAPKLMIYDVSDRPSGVSNRFSGSKSGNTASLTISGLQAEDEADYFCSSLTTSSTLVFGGGTKLTVL

How the values were obtained:
mouse ROR1-ECD = biological target: T1, mouse ROR1-ECD (mouse, UniProt Q9Z139 30-406); assay: phage antibody protein ELISA
T1 construct: extracellular domain; also called mROR1
Experimental: (§1) Binding specificities of the 45 phage antibodies were determined by protein ELISA against human ROR1-ECD, human ROR2-ECD and mouse ROR1-ECD (FIG. 12).

human ROR2-ECD = biological target: T2, human ROR2-ECD (human, UniProt Q01974 34-403); assay: phage antibody protein ELISA
T2 construct: extracellular domain; also called hROR2
Experimental: as §1

[1] = biological target: T3, human ROR1 extracellular domain (ECD) protein (human, UniProt Q01973 30-406); assay: competitive phage ELISA: soluble ROR1 against ROR1-coated plate
T3 construct: also called hROR1-ECD; human ROR1-ECD
Experimental: Purified phage antibodies were first diluted serially in PBST buffer, and tested for binding to a ROR1-coated plate. The dilution that gave 50-80% saturating signal was used in the solution binding assay in which phage were first incubated with increasing concentration of ROR1 for one to two hours, and then transferred to a ROR1-coated plate for 10-15 minutes to capture the unbound phage.

[2] = biological target: T4, ROR1 extracellular domain Fc-fusion, dimer (human, UniProt Q01973 30-406); assay: SPR, immobilised ROR1 dimer, antibody injected, 1:1 model; apparent affinity
T4 construct: also called ROR1 dimer; hROR1 dimeric ECD-Fc fusion protein; not shown: Fc part
Experimental: (§2) The binding affinities of ROR1 extracellular domain dimer and monomer for anti-ROR1 antibodies were determined by surface plasmon resonance (SPR). ROR1 extracellular domain Fc-fusion, “dimer,” and ROR1 extracellular domain Fc fusion:Fc heterodimer, “monomer,” are the dimer and monomeric forms of ROR1 used for affinity analysis, respectively. Briefly, ROR1 dimer and monomer were directly immobilized to a CM4 chip using an amine coupling kit and 100 mM ethylenediamine in 100 mM Sodium Borate buffer, pH 8.0 as the blocking reagent. Approximately 100-150 RU of ROR1 dimer and monomer were immobilized on separate flow cells and an un-derivatized flow cell was used as a reference control. […] Dissociation was followed for 180 seconds. The association constant, dissociation constant, and affinity of each anti-ROR1 antibody was calculated using the Biacore T200 Evaluation Software 1:1 binding model.
(§3) Sensorgrams were normalized to 100 RU using the “binding stability point” at the end of the association phase but before the dissociation phase.

[3] = biological target: T5, ROR1 extracellular domain Fc fusion:Fc heterodimer, monomer (human); assay: SPR, immobilised ROR1 monomer, antibody injected, 1:1 model
T5 construct: Heterodimer of one ROR1 ECD-Fc chain and one Fc chain; also called ROR1 monomer; hROR1 monomeric ECD-Fc fusion protein; not shown: Fc part; Fc alone
Experimental: as §2, §3

[4] = biological target: T5, ROR1 extracellular domain Fc fusion:Fc …; assay: SPR, immobilised ROR1 monomer, antibody injected, 1:1 model; second entry of 601-14
Experimental: as §2, §3

[5] = biological target: T4, ROR1 extracellular domain Fc-fusion, …; assay: SPR, immobilised ROR1 dimer, antibody injected, 1:1 model; apparent affinity; second entry of 601-14
Experimental: as §2, §3

[6] = biological target: T4, ROR1 extracellular domain Fc-fusion, …; assay: SPR, immobilised ROR1 dimer, antibody injected, 1:1 model; second entry of 601-14
Experimental: as §2, §3

[7] = biological target: T4, ROR1 extracellular domain Fc-fusion, …; assay: SPR, immobilised ROR1 dimer, antibody injected, 1:1 model
Experimental: as §2, §3

T4 sequence (Q01973 30-406): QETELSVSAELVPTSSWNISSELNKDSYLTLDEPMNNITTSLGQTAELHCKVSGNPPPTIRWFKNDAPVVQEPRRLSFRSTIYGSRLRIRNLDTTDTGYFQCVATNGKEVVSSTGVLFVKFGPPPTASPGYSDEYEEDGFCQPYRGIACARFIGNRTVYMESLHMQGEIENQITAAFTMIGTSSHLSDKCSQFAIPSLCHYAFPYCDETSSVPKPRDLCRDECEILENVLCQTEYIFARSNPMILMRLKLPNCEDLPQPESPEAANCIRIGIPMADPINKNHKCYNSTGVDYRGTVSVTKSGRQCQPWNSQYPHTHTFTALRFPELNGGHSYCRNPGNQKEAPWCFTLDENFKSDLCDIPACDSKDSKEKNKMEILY
T3 sequence (Q01973 30-406 limits assumed): as the sequence (Q01973 30-406) above
T5 sequence (Q01973 30-406, one chain of several): as the sequence (Q01973 30-406) above
T2 sequence (Q01974 34-403): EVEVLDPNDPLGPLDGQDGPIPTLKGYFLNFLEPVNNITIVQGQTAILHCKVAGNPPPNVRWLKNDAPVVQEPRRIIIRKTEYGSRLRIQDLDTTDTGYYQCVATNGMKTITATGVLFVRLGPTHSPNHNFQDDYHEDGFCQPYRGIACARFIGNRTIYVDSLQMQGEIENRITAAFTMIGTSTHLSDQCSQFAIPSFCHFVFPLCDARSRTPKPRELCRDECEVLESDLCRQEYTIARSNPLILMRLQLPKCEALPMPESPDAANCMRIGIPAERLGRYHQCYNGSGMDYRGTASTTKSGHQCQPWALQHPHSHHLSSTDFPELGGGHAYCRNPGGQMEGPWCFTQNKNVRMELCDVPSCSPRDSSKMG
T1 sequence (Q9Z139 30-406): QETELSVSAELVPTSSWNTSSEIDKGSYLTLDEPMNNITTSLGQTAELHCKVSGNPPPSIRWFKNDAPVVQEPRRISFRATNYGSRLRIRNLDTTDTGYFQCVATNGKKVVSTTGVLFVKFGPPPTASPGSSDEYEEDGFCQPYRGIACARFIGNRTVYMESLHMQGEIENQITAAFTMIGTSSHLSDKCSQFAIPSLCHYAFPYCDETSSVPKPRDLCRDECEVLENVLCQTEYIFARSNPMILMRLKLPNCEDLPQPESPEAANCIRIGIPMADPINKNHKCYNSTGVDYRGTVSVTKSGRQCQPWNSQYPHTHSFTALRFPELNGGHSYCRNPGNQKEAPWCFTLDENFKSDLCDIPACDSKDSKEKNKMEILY

Binder	binding result (mouse ROR1-ECD)	binding result (human ROR2-ECD)	IC50 [1] [nM]	also measured
B1	no binding	no binding	0.62	–
B2	–	–	–	Kd [2]: 0.2 nM; Kd [3]: 0.4 nM; koff [3]: 0.0013 s⁻¹; kon [3]: 3.2e+06 M⁻¹ s⁻¹; Kd [4]: 0.8 nM; koff [4]: 0.0021 s⁻¹; kon [4]: 2.4e+06 M⁻¹ s⁻¹; Kd [5]: 0.6 nM; koff [6]: 0.0015 s⁻¹; kon [6]: 2.4e+06 M⁻¹ s⁻¹; koff [7]: 0.00066 s⁻¹; kon [7]: 2.7e+06 M⁻¹ s⁻¹
B3	binds	no binding	8.05	–
B4	binds	no binding	27.9	–
B5	no binding	no binding	1.85	–
